In patent US20210347852A1 (Regeneron, published 2021):

B1: Human VEGF121 (R&D SYSTEMS Cat #4644-VS) (ligand, UniProt P15692-9 27-147, looked up)
chain: APMAEGGGQNHHEVVKFMDVYQRSYCHPIETLVDIFQEYPDEIEYIFKPSCVPLMRCGGCCNDEGLECVPTEESNITMQIMRIKPHQGQHIGEMSFLQHNKCECRPKKDRARQEKCDKPRR

Key:
[1] = biological target: T1, VEGFR1 chimeric receptors Flt1(1-7)-IL18Rα / Flt1(1-7)-IL18Rβ on HEK293/D9 reporter cells (UniProt P17948 27-758; Q13478 351-541; P17948 27-758; O95256 378-599, limits assumed); assay: cell-based or functional assay
T1 sequence (P17948 other isoform, or with tags, fused parts or gaps mutant limits assumed, chain 1 of 2): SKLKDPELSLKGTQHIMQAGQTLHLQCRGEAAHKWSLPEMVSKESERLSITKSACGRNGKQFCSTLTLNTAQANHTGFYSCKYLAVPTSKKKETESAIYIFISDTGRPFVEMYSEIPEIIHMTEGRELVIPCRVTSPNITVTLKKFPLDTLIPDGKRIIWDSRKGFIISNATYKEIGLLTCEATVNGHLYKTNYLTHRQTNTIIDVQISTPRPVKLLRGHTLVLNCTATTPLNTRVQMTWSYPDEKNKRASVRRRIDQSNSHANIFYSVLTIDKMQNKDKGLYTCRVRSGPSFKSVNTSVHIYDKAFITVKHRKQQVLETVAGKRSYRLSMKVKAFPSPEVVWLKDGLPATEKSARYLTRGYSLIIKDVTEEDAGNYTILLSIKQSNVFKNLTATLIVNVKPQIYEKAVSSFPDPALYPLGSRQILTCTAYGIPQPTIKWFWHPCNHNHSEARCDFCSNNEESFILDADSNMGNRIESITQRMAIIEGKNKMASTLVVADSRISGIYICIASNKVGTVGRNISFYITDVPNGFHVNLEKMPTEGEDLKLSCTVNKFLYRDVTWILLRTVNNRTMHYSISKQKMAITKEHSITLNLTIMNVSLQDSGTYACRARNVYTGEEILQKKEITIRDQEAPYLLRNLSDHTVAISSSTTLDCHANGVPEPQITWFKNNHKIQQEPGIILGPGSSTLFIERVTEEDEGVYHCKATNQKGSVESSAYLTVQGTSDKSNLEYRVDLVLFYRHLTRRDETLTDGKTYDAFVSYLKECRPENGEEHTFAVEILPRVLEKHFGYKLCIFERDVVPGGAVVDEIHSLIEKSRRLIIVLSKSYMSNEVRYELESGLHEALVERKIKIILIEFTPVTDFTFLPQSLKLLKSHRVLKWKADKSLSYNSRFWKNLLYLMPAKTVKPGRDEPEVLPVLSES
T1 sequence (P17948 other isoform, or with tags, fused parts or gaps mutant limits assumed, chain 2 of 2): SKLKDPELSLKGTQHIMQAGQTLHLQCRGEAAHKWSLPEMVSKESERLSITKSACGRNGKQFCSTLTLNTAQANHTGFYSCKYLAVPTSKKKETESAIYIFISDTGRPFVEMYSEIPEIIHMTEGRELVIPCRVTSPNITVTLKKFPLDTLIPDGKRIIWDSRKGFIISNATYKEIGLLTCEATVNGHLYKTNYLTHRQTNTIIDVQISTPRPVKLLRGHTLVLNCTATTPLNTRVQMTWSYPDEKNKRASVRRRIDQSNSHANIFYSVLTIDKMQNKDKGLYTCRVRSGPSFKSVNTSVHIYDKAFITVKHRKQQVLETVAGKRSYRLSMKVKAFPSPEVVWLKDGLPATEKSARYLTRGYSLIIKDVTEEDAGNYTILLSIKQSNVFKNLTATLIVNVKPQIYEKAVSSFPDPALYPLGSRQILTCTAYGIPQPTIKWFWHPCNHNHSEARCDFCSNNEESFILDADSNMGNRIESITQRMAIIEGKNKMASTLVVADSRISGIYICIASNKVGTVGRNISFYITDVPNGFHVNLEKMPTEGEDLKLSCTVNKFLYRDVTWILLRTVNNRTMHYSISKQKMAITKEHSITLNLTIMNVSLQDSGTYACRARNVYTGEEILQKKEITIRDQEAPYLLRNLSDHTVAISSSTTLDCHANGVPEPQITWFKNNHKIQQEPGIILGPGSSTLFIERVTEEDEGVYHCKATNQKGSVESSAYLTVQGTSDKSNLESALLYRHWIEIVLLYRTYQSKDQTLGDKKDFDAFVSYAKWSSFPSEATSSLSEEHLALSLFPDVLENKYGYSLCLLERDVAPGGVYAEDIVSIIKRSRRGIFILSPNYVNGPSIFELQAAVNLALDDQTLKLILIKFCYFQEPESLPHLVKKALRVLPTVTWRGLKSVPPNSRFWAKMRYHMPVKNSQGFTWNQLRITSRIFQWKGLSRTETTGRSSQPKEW

[2] = biological target: T1, VEGFR1 chimeric receptors …; assay: cell-based or functional assay; remark: listed apart in the source
[3] = biological target: B1; assay: cell-based or functional assay
[4] = biological target: T2, Human VEGF165 (REGN110) (human, UniProt P15692-4 27-191); assay: SPR (Biacore 3000), 25C, trap captured by REGN18, hVEGF165 injected
T2 construct: also called hVEGF165; REGN110-L9
Protocol: Equilibrium dissociation constants (KD values) for human VEGF₁₆₅ binding to various purified VEGF mini-trap constructs were determined using a real-time surface plasmon resonance biosensor using a Biacore 3000 instrument. All binding studies were performed in 10 mM HEPES, 150 mM NaCl, 3 mM EDTA, and 0.05% v/v Surfactant Tween-20; pH 7.4 (HBS-ET) running buffer at 25° C. The Biacore sensor surface was first derivatized by amine coupling with a monoclonal mouse anti-VEGFR1 antibody (REGN18) to capture VEGF mini-trap constructs. Binding studies were performed on the following human VEGF reagents: human VEGF₁₆₅. […] Dissociation of bound VEGF₁₆₅ reagent from VEGF mini-trap constructs was monitored for 60 minutes in HBS-ET running buffer. Kinetic association (ka) and dissociation (kd) rate constants were determined by fitting the real-time sensorgrams to a 1:1 binding model using Scrubber 2.0c curve fitting software. Binding dissociation equilibrium constants (KD) and dissociative half-lives (t1/2) were calculated from the kinetic rate constants as: […]

[5] = biological target: B1; assay: cell-based or functional assay; remark: listed apart in the source
[6] = biological target: B1; assay: cell-based or functional assay; remark: listed apart in the source
[7] = biological target: T2, Human VEGF165 (REGN110); assay: cell-based or functional assay

| Binder | EC50 (read off the curve); NFkB-luciferase reporter (RLU), 293/D9/VEGFR1 cells, VEGF121 titrated alone [A] [1] [nM] | EC50 of activation of HEK293/D9/Flt-IL18Rα/Flt-IL18Rβ (VEGFR1) luciferase reporter cells [2] [nM] | IC50, Inhibition of 20 pM VEGF121, VEGFR1 assay (luciferase) [3] [M] | 2.5 nM hVEGF165 Bound (RU) [4] [RU] | Kd [4] [nM] | koff [4] [s⁻¹] | kon [4] [M⁻¹ s⁻¹] | t½ [4] [h] | IC50 (read off the curve); NFkB-luciferase reporter (RLU), 293/D9/VEGFR1 cells, VEGF121 constant 40 pM [C] [5] [M] | IC50 (read off the curve); NFkB-luciferase reporter (RLU), 293/D9/VEGFR1 cells, VEGF121 constant 40 pM [A] [6] [M] | IC50, Inhibition of 20 pM VEGF165, VEGFR1 assay (luciferase) [7] [M] |
| --- | --- | --- | --- | --- | --- | --- | --- | --- | --- | --- | --- |
| B1 | ~0.1 | ~0.03 | – | – | – | – | – | – | – | – | – |
| REGN10102, VEGF trap hIgG2 Fc w/2Cys (Fc fusion) SDTGRPFVEMYSEIPEIIHMTEGRELVIPCRVTSPNITVTLKKFPLDTLIPDGKRIIWDSRKGFIISNATYKEIGLLTCEATVNGHLYKTNYLTHRQTNTIIDVVLSPSHGIELSVGEKLVLNCTARTELNVGIDFNWEYPSSKHQHKKLVNRDLKTQSGSEMKKFLSTLTIDGVTRSDQGLYTCAASSGLMTKKNSTFVRVHEKVECPPCPAPPVAGPSVFLFPPKPKDTLMISRTPEVTCVVVDVSHEDPEVQFNWYVDGVEVHNAKTKPREEQFNSTFRVVSVLTVVHQDWLNGKEYKCKVSNKGLPAPIEKTISKTKGQPREPQVYTLPPSREEMTKNQVSLTCLVKGFYPSDIAVEWESNGQPENNYKTTPPMLDSDGSFFLYSKLTVDKSRWQQGNVFSCSVMHEALHNHYTQKSLSLSPGK | – | – | 1.43e-11 | 6.6 | 0.0026 | 2.77e-05 | 1.06e+07 | 6.95 | ~1e-11 | – | – |
| REGN7483, VEGF mini-trap hIgG1 Fc (other, Enzymatically cleaved from aflibercept; also called REGN7483F; VEGF mini-trap derived from REGN3) SDTGRPFVEMYSEIPEIIHMTEGRELVIPCRVTSPNITVTLKKFPLDTLIPDGKRIIWDSRKGFIISNATYKEIGLLTCEATVNGHLYKTNYLTHRQTNTIIDVVLSPSHGIELSVGEKLVLNCTARTELNVGIDFNWEYPSSKHQHKKLVNRDLKTQSGSEMKKFLSTLTIDGVTRSDQGLYTCAASSGLMTKKNSTFVRVHEKDKTHTCPPCPAPELLG | – | – | 2.09e-11 | 9.37 | 0.0019 | 1.95e-05 | 1.01e+07 | 9.85 | – | ~2e-11 | 3.36e-11 |
